Results on one molecule are retold here after article PMC7062719, “Full-length human GLP-1 receptor structure without orthosteric ligands” (Nature Communications, 2020).

The target of the assay is T1, Human GLP-1R (Arg24-Leu422) fragment (human, UniProt P43220).
T1 construct: GLP-1 receptor, human, residues Arg24-Leu422; N-terminal HA-FLAG-B2-HRV14-3C tags and C-terminal HPC4-HRV14-3C-10x His tags; no 3C cleavage is described; also called detergent solubilized GLP-1R; source: Sf9 insect cells, baculovirus, co-expressed with DNGαs and Gβ1γ2; solubilised in LMNG/CHS, purified as a complex (HPC4 resin, SEC); not shown: HPC4, C-terminal, kept
Kind of assay: SEC + other: negative stain EM; Fab7F38 added at an estimated 1:1 ratio to the HPC4-purified GLP-1R–semaglutide–Gs–Nb35 complex, SEC on Superose 6 Increase (20 mM HEPES pH 7.5, 100 mM NaCl, 2 mM MgCl2, 1 μM semaglutide, LMNG/CHS), peak fraction used for single-particle 2D class averages. Particulars: both partners purified.

T1 sequence (P43220 24-422): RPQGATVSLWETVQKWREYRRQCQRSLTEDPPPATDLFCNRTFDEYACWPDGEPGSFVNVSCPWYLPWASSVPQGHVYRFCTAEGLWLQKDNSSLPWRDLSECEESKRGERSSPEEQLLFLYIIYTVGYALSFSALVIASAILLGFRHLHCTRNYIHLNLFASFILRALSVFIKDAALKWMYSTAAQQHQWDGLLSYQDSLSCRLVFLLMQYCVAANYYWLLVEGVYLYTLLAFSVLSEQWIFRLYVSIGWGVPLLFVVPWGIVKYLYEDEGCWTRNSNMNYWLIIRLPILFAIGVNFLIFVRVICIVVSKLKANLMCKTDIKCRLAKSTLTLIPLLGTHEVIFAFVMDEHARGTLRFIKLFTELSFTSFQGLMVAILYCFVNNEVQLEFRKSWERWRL

B1: Fab7F38 (Fab, V domains shown)
VH: EVQLQQSGPELVKPGASVKMSCKAPGYTFTSYVTHWVKQKPGQGLEWIGYINPYNDSPKYNEKYKAKATLTSDKSSSTVYMELSSLTSEDSAVYYCARIGYFRYDEGGNYALDYWGQGTSVTVSS
VL: QIVLTQSPAIMSASPGEKVTISCSASSSVSYMYWYQQKPGSSPKPWIYRTSKLASGVPVRFSGSGSGTSYSLTISNMEAEDAATYYCQQFHTYPWTFGGGTKLEIK
notes: source: ExpiCHO-S cells, transient transfection, purified (Protein G Sepharose, SEC Superdex 75)
Regarding B1, the binding result is recorded as “binds”.
